{
  "source": "patent US10752921B2",
  "about": "“Enzymes and methods for styrene synthesis” (Phytogene, Inc., priority 2012, dated 2020)",
  "tested_on": "styrene production",
  "experiment": "Styrene production by FDC1 mutants from tCA (colorimetric screening, confirmed by HPLC)",
  "format": "cell-based",
  "details": "E. coli cells, tCA 1 g/L, 30° C. for 4 hours",
  "experimental": "Saturation mutagenesis allows the change of one amino acid to 19 other alternative amino acid residues. […] The codon NNK has 32-fold degeneracy and encodes all 20 amino acids without rare codons. The QuikChange PCR products were examined by agarose gel electrophoresis and then 15 μl of PCR products were digested with 1 μl Dpnl (New England Biolabs) at 37° C. for 4 hours to remove the template plasmid. Aliquots of (2 μl) digestive products were transformed into BL21-Gold (DE3) competent cells (STRATAgene, CA) and inoculated on Luria-Bertani (LB) agar plates containing kanamycin. The quality of the library by DNA sequencing was confirmed. The library covers 90% of mutagenesis (17 mutants out of 19). To cover 100% (19 out of 19 mutant), we screened 150 mutants for each site.\nThe transformants (Example II.2) were inoculated in 96-well plates (NUNC, Roskilde, Denmark) containing 100 μl LB broth per well and incubated at 37° C., overnight. The cultures were then mixed with equal amount of 50% glycerol and stored at −80° C. as the master plate. An aliquot of 10 μl culture was inoculated in 2 ml deep-well plates (USA scientific) with 1 ml TB broth per well and incubated at 37° C. until the OD600 reached 1.0. The cultures were then induced by 0.2 mM IPTG and incubated at 18° C. for 20 hours with shaking at 250 rpm.\nCells were harvested and suspended with 0.25 ml PBS buffer at pH 7.0 and the substrate (tCA) was added at a final concentration of 1 g/L. The culture was incubated at 30° C. for 4 hours and the volatile product styrene was collected by using 96 well STRATA-X® reversed phase plate containing 10 mg polymer based resin (Phenomenex) on top of the culture plate (FIG. 19). To avoid styrene vapor diffusion, 96-square well silicone sealing mats with pre-slit were used between 96-well culture plate and 96 well STRATA-X® reversed phase plate. The product was collected by 200 μl propanol for each well and the amount of product was measured by colorimetric method.\nVarious chemicals were tested as an indicator for styrene detection, including NBP (4-nitrobenzyl-pyridine) as a preferred indicator. Styrene was mixed with cytochrome P450 BM-3 in 50 mM phosphate buffer pH 8.0. The styrene oxidation reaction was started by adding 0.2 mM NADPH, and the reaction mixture was incubated at room temperature for 5 minutes with shaking. The NBP solution was added to the mixture and incubated at room temperature for further 5 minutes with shaking which gives white precipitate. The tube or plate containing reaction mixtures were heated at 70° C. for 30 minutes and chilled on ice for 5 minutes. After adding Dimethylformamide (150 μl) and 25 μl of 1M K2CO3, the reaction mixture gave blue color that can be measured spectrophotometrically at 600 nm immediately. The […] of NBP reacts with the oxirane ring of styrene oxide to yield a blue chromophore a blue color that can be monitored spectrophotometrically at 600 nm.\nThe mutants showing higher activity were confirmed by HPLC using an ACQUITY UPLC BEH C18 column (1.7-μm, 2.1×50-mm, Waters, USA). The samples were resolved in 30% acetonitrile (A) with an increasing concentration gradient of acetonitrile (B) for 1 min, 95%; then to 1 min, 30%; at a flow rate of 1 ml/min. UV absorption was monitored at 254-, 280-, and 310-nm. The changed amino acid residues in the mutants showing the higher activity were confirmed by DNA sequence.",
  "data": [
    {"molecule": "K190C (protein, listed as Saccharomyces cerevisiae) MRKLNPALEFRDFIQVLKDEDDLIEITEEIDPNLEVGAIMRKAYESHLPAPLFKNLKGASKDLFSILGCPAGLRSKEKGDHGRIAHHLGLDPKTTIKEIIDYLLECKEKEPLPPITVPVSSAPCKTHILSEEKIHLQSLPTPYLHVSDGGKYLQTYGMWILQTPDKKWTNWSIARGMVVDDKHITGLVICPQHIRQIADSWAAIGKANEIPFALCFGVPPAAILVSSMPIPEGVSESDYVGAILGESVPVVKCETNDLMVPATSEMVFEGTLSLTDTHLEGPFGEMHGYVFKSQGHPCPLYTVKAMSYRDNAILPVSNPGLCTDETHTLIGSLVATEAKELAIESGLPILDAFMPYEAQALWLILKVDLKGLQALKTTPEEFCKKVGDIYFRTKVGFIVHEIILVADDIDIFNFKEVIWAYVTRHTPVADQMAFDDVTSFPLAPFVSQSSRSKTMKGGKCVTNCIFRQQYERSFDYITCNFEKGYPKGLVDKVNENWKRYGYK", "values": [
      {"measurement": "amount of styrene compared to that of wild type (in words)", "value": "significantly higher amount of styrene"},
      {"measurement": "styrene produced compared to wild type", "value": 3, "unit": "times"}
    ]},
    {"molecule": "K190N (protein, listed as Saccharomyces cerevisiae) MRKLNPALEFRDFIQVLKDEDDLIEITEEIDPNLEVGAIMRKAYESHLPAPLFKNLKGASKDLFSILGCPAGLRSKEKGDHGRIAHHLGLDPKTTIKEIIDYLLECKEKEPLPPITVPVSSAPCKTHILSEEKIHLQSLPTPYLHVSDGGKYLQTYGMWILQTPDKKWTNWSIARGMVVDDKHITGLVINPQHIRQIADSWAAIGKANEIPFALCFGVPPAAILVSSMPIPEGVSESDYVGAILGESVPVVKCETNDLMVPATSEMVFEGTLSLTDTHLEGPFGEMHGYVFKSQGHPCPLYTVKAMSYRDNAILPVSNPGLCTDETHTLIGSLVATEAKELAIESGLPILDAFMPYEAQALWLILKVDLKGLQALKTTPEEFCKKVGDIYFRTKVGFIVHEIILVADDIDIFNFKEVIWAYVTRHTPVADQMAFDDVTSFPLAPFVSQSSRSKTMKGGKCVTNCIFRQQYERSFDYITCNFEKGYPKGLVDKVNENWKRYGYK", "values": [
      {"measurement": "amount of styrene compared to that of wild type (in words)", "value": "significantly higher amount of styrene"}
    ]},
    {"molecule": "K190V (protein, listed as Saccharomyces cerevisiae) MRKLNPALEFRDFIQVLKDEDDLIEITEEIDPNLEVGAIMRKAYESHLPAPLFKNLKGASKDLFSILGCPAGLRSKEKGDHGRIAHHLGLDPKTTIKEIIDYLLECKEKEPLPPITVPVSSAPCKTHILSEEKIHLQSLPTPYLHVSDGGKYLQTYGMWILQTPDKKWTNWSIARGMVVDDKHITGLVIVPQHIRQIADSWAAIGKANEIPFALCFGVPPAAILVSSMPIPEGVSESDYVGAILGESVPVVKCETNDLMVPATSEMVFEGTLSLTDTHLEGPFGEMHGYVFKSQGHPCPLYTVKAMSYRDNAILPVSNPGLCTDETHTLIGSLVATEAKELAIESGLPILDAFMPYEAQALWLILKVDLKGLQALKTTPEEFCKKVGDIYFRTKVGFIVHEIILVADDIDIFNFKEVIWAYVTRHTPVADQMAFDDVTSFPLAPFVSQSSRSKTMKGGKCVTNCIFRQQYERSFDYITCNFEKGYPKGLVDKVNENWKRYGYK", "values": [
      {"measurement": "amount of styrene compared to that of wild type (in words)", "value": "significantly higher amount of styrene"},
      {"measurement": "styrene produced compared to wild type", "value": 3, "unit": "times"}
    ]},
    {"molecule": "K190D (protein, listed as Saccharomyces cerevisiae) MRKLNPALEFRDFIQVLKDEDDLIEITEEIDPNLEVGAIMRKAYESHLPAPLFKNLKGASKDLFSILGCPAGLRSKEKGDHGRIAHHLGLDPKTTIKEIIDYLLECKEKEPLPPITVPVSSAPCKTHILSEEKIHLQSLPTPYLHVSDGGKYLQTYGMWILQTPDKKWTNWSIARGMVVDDKHITGLVIDPQHIRQIADSWAAIGKANEIPFALCFGVPPAAILVSSMPIPEGVSESDYVGAILGESVPVVKCETNDLMVPATSEMVFEGTLSLTDTHLEGPFGEMHGYVFKSQGHPCPLYTVKAMSYRDNAILPVSNPGLCTDETHTLIGSLVATEAKELAIESGLPILDAFMPYEAQALWLILKVDLKGLQALKTTPEEFCKKVGDIYFRTKVGFIVHEIILVADDIDIFNFKEVIWAYVTRHTPVADQMAFDDVTSFPLAPFVSQSSRSKTMKGGKCVTNCIFRQQYERSFDYITCNFEKGYPKGLVDKVNENWKRYGYK", "values": [
      {"measurement": "amount of styrene compared to that of wild type (in words)", "value": "significantly higher amount of styrene"}
    ]}
  ]
}
